Measurements from paper PMC5778602.

Molecular target: T1, CstF-50 (full length, affinity tag removed) (human), Q05048
T1 chain: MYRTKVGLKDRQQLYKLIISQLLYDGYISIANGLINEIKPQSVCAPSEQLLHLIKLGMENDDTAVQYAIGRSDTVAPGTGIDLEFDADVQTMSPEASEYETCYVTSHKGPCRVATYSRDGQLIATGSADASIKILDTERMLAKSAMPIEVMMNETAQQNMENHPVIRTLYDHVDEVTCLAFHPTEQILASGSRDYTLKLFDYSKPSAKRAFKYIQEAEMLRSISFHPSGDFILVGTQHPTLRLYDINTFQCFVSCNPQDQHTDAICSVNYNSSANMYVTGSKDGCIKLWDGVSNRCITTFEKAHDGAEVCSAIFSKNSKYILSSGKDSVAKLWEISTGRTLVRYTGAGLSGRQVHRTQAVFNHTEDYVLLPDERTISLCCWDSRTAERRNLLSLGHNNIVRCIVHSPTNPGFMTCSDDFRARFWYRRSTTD
Assay: SEC-MALS
Conditions: remark: other sources report otherwise

stoichiometry N: 2
B1: CstF-50 (full length, affinity tag removed), Q05048 1-431 (natural protein)
chain: MYRTKVGLKDRQQLYKLIISQLLYDGYISIANGLINEIKPQSVCAPSEQLLHLIKLGMENDDTAVQYAIGRSDTVAPGTGIDLEFDADVQTMSPEASEYETCYVTSHKGPCRVATYSRDGQLIATGSADASIKILDTERMLAKSAMPIEVMMNETAQQNMENHPVIRTLYDHVDEVTCLAFHPTEQILASGSRDYTLKLFDYSKPSAKRAFKYIQEAEMLRSISFHPSGDFILVGTQHPTLRLYDINTFQCFVSCNPQDQHTDAICSVNYNSSANMYVTGSKDGCIKLWDGVSNRCITTFEKAHDGAEVCSAIFSKNSKYILSSGKDSVAKLWEISTGRTLVRYTGAGLSGRQVHRTQAVFNHTEDYVLLPDERTISLCCWDSRTAERRNLLSLGHNNIVRCIVHSPTNPGFMTCSDDFRARFWYRRSTTD
